# Assay results: the DeepSol protein solubility set
# Assay: soluble on expression in E. coli; label from the status in PepcDB or PDB records
row,Sequence,soluble on expression in E. coli
1,MALKPTIYKFRIALSDMNNDYYDSKNLTIALHPSEKPQRMLARILAFCLNAQKDLEFTKGLSTTEEPDLWHVADDQSITHWIEIGEPEPDRIKKASRLAKQVKVYTYNTKAPVWWEKMSGKFSMLPVSVESFDYDAIDMICQHLDRGTNLSVMITGTSIFVDVNDQHVEVTVKELQSHDAP,not soluble
2,MKLVIDAGHGGYDSGAVGNGLVEKNLTLQIARRVRDILTVNYPITIKMTRDSDVFISLSERANIANAFSADYFISFHINSGGGTGFESYIYNALSNSSTAYAKQQKMHTAVNPVLTKYGLRDRGAKKENYAVLRETAMDAILTETAFIDTAFDANLLKNPQFIEDLSQAYANGIAAIFGVAPNPQPPNPQPVPQTKGIAYVLGKNVNLRNGPSTSSSVIRQLNSPESYVVYQESNGWLDLGNGQWVYNDSSYINFVKTSNSDGSPIGVAYIQGMNVNLRSGPSTTSAVIRQLNSPESYLVYINENGWLNLGGNQWVYNDPAYIKYTQY,not soluble
3,MGSDKIHHHHHHMPPFILNSQNVFDYLSSLNLCTLEEGESSKIELKPAKNFNLLITFPEGRKLLVKQERHNLEGKTTGEFVLEWRIHDFVSRFPELNHIRSYLSEAIYFNWENSIIIFNYLDNYRDLMDFYVKENLNLFPTQLANAVGTTLALIHRTSFNCEEYRDFFQNPGESKSNPKTPHLNRGLDRLTPEIFGKVPADGLRFFALYQRYDSLGQAIAQLINSFTPCCLTHNDLKLNNILVSLDWEDIGDENIVRLIDWERGSWGDPANDLGTLIASYLQIWLYSMVTGKSIAIEESLRLAATPLYVLQPSLRELVIAYLTHFPEILEHHPDFLQRVMQFCGLALITAIQAQLQYEKTFGNVGICMLQVAKSLLCRPEASVQTIFGVQLSDLSPVSLSQV,not soluble
4,MGSDKIHHHHHHMRKLGFVLFVLITAVMTAQEEPLVSNIFQDTYILDALADISAQTGIPIIADTTVTGFITMELNEVPLEQALKMILMPGGYVFKKMDGFYLVGSPDPANPAFRYLAVTKTYKLKYITTADAQELLPAVYKSYVKFNEKNNMVTITAPEEIIQEFEEDLKKIDIPIPQVKISVIVTEVSKDYSNELGLNSLDYSFGSGQEFNENWSATLGLVTGIIDVQTDVFGQILAQLKLLEEDQKAKITADPWIIVKSGEKASLFLGERQVVLLQAEGAVSRIESIDVGVSIDIQPRVMDKEELELTLSPKVSHFAGEKLGTFAVKQNELSTTLFLKNGQTVVISGATIEDSAQTSSGVPILNKIPLIRYLFGGTTKKDSQKELYIFIKAEIQGSE,not soluble
5,MEQQLNLGHLLTAARLLDIGALDISSLDLGALTSTSSSPGSSSPAMFDLSNESELRSLFCGKLKVDKKQSSCASNASTSSQPYCSSPPARKSSKHSRTAHNELEKTRRANLRGCLETLKMLVPCVSDATRNTTLALLTRARDHIIELQDSNAAQMKKLNDLRDEQDELVAELAQLQADEEVAQATSQACQTLSQSRPESRASSFTSTSSRDSPCYLEYSPSSKPMDSHKPTIIDLYAEGLIPRGPITFPRPLVYPHNVFDLMNLPPTPFDVSQFLPINLQV,not soluble
6,MSVSFMELGSADSAEAAANKVAHHVEQMMETSDFFDRLTQHGTTPVSGLGEKFYVKGAPEFVSTRRIPIPGELQMQMSNIHSEFSMGFFTQISRVWVVIDNNLYMWNYETNDDLAFFDSSDAAILKVSLVNIKPGVFEPEIQYGLVVGTISDICLYPVFDFVENGASSISIDSKRCFKIALDGATVNDISYTSNGRVFYTADDQLFEFVYEKQNGWFGSTNHKCRGVNQTASILGTLISLPFFGSSKEPLDQITIDKSRNIMYLLGRAGTVSVWDLGADGAACAKFLSVPISKIAHEAHILTQFGHDETSFHSITSIKALEASQSAALNLVATTAKGVRLYFSVSTGPQSTMAMFNNSGTPNERNRPQTSVRPQCLRVAHVRFAPGVTPASIYGDGPNGVSVVYADECTRL,not soluble
7,MGSDKIHHHHHHMFTGTFTLRSRKSRHDHSSGNVRVCENEDMFESVGTWWRNLTHRHGDDRNNDDTLDDATNTLLSILPLASIVVDEHDEVIRAHPDAYALGVVRDDAIADDTVASAVHEVRAHGGKKQFSLTTTTLHEPKKAPKAGKPTMREVAKQALIGQSPDKPVTTVSRPNWLKVIVGRLNERFVVVLVSDVSETVRFSQIRDSFITNVSEQLLKPTQSLEELADALEHDSDNKAAIEGNTVKLRQSCARMEHMVSDLLLLIKAQEPILPTASNRINVMEQVKTVVDAHRDMAQRRGIDIEIDGDESLDINGEGEQIQAAVAKLLENAIAYSPDGKGITVSVKPNEDGTKVLLSVLDRGCGIAQKEQSRIFERFYRGGNQNGHSEEGIGLGLAIVKHVALTHHGSASVWSAPGQGSTFTLGLPVARN,not soluble
8,SEEYHRHCDEVGFNAEEAHNIVKECVDGVLGGEDYNHNNINQWTASIVEQSLTHLVKLGKAYKYIVTCAVVQKSAYGFHTASSCFWDTTSDGTCTVRWENRTMNCIVNVFAIAIVL,soluble
9,MDNCLAAAALNGVDRRSLQRSAKLALEVLERAKRRAVDWHALERPKGCMGVLAREAPHLEKQPAAGPQRVLPGEREERPPTLSASFRTMAEFMDYTSSQCGKYYSSVPEEGGATHVYRYHRGESKLHMCLDIGNGQRKDRKKTSLGPGGSYQISEHAPEASQPAENISKDLYIEVYPGTYSVTVGSNDLTKKTHVVAVDSGQSVDLVFPVLEHHHHHH,soluble
10,MNSAPLLVDPSTQSATVVAETQPFGDRCMLESLIRRPFCMNPQLQTHPYDRQPTTAPRLQMMPRRDQTQNPVIAELMSTVTRVRDRKRQRDEEAMYPRRSVGLQTDTEDVSEVLDGGTRISDMKRVRREELLDQSSLDGITFETSGTNTSDEPHSQIITSNSSSLPSTSASSSSDRPRAMRSNQEMRQARRARRQRQTQHESQRMQLEHRLQQITGPVPGSEHNCMTGCPHLHQQQQQQHQQPLLHIQLNPIPPQPQTGPNSVSPTIAPGAMLRAHPLASTFPYFSLPLTQNYPVMMVLPMAAVAQQHAAAAAAVVAVAAAAAVPQPPPPPPQPTLHAPVPIRPQNNPYNLYAFRNSPINVHAPGYVGEYVELFRSQQFLFPTSERYGIDRHHMFGGLDLDLPVGASKVEIDTFTIPTVYAKKTDGEEDEDTCTVCLSSFEDGESIQKLRCNHVFHPECIYKWLDINKRCPMCREEIDRPESLRTQPGL,not soluble
11,MGFRLGIVGLPNVGKSTLFNALTKTMKAQAANYPFCTIEPNVGVVEVPDERLYKLAEIEKSQKITPTFIEFVDIAGLVKGASKGEGLGNQFLSHIREVDAVAMVLRAFEDENIVHVEGSVDPVRDKEIVEIELIAKDLESVNRRIEKVQKVAKGGDKKAREEMEHLNALKEILENLEPIRKYADKLPPETLEYAKKTLFLLTVKPVMYIANISEKDLPEGEGNPHVERIKEMANQENAPVVVISAELEAQLAGLSEEEQKEMLEAYGLKEPGLNKVIRTGYRLLDLITFFTAGEREARAWTVKRGTKAPQAAGKIHSDMERGFIAAEVISYEDLIKAGSWAKAKEQGLIRLEGKDYEIQDGDVVYFRFNV,soluble
12,GSHMDDDLVDAEGNLVENGGTYYLLPHIWAHGGGIETAKTGNEPCPLTVVRSPNEVSKGEPIRISSQYRSLFIPRGSLVALGFANPPSCAASPWWTVVDSPQGPAVKLSQQKLPEKDILVFKFEKVSHSNIHVYKLLYCQHDEEDVKCDQYIGIHRDRNGNRRLVVTEENPLELVLLKAKSETASSH,soluble
13,MASFCNSWKRKHNEAIKLSEEIDGMILERSSLAETSSYARGHASYMRRKITILANGVQTLKNLLAESQGKSISAKEMSRCKDMVEDLRSKAYQMASALDMLKFSNIGSLLGQDDIMSRVIDMDNQEIVGFQRTTMKGKLKGVMHLKREALAMNMELGLQTRLIDRLDHHVDVSASDVEELQRSIDTGVCMTLLLSVVVVVFGLSEFVKFGRRRILG,soluble
14,MPATNDGPDDGAHLSKSEQTRALILETAMRLFQERGYDRTTMRAIAQEAGVSVGNAYYYFAGKEHLIQGFYDRIAAEHRAAVREVLARETDLEARLAGVLKVWLDIATPYHEFAVQFFKNAADPDSPLSPFSPESEHARVEAIGIHRAVLAGAKTKVPEELRDILPELMWLSQMGLVLYWIFDRTEGRERSYRLAERGARLTARGVVLARFRVLRPLVREVHELFTDFLPGMTKVMPDPAKKPTRDAGPQA,soluble
15,MRSMTDVRRYWISLLRKICEMPLELCASDRLKKSMPVEGKKSEERRKFTHLELLGRIFCGISPFLELNRESPSTDPEERKIATRLSEFAVKSLDVATNPNCKDYMNFKEGRQPLVDAAFLVEAILRAPKVLWEDLDVSTKKRLIRELKATRKIEPYFSNWLLFSAMIETFFFFAGEEWDSTKVDLILKNVESWYKGDGAYGDGPFFRWDYYNSFVIYPMTIDVLRIISEEKTEWKELYVKVLRRAQRYAVVLERMISPEGTFPIIGRSITYRTAVFHLLSQLSLLHLLPASLSPAQVRCALTAVLRRIFENPSTFDENGWLKIGVIGSQPSLGEEYITTGSLYLCTTVFLPLGLPTSDPFWRDPCKKWTNKKVWEGEDVAPDRALEDLEHHHHHH,soluble
16,MSHVTAAPNVLAASAGELAAIGSTMRAANAAAAAPTAGVLAAGGDDVSAGIAALFGARAQAYQAISAQAALFHDRFVQILQEGAAAYAMAEAANALPLQKAQGVVSELAQDRTGGTGTGQSRGAGGFGGVGQAGGKGWDGGPIGNGQVGEQHGAGQLGSTDGNPGVAGAAHGSGVSASHGSGATGAAGVADPGGSGAGVGSAAGNGTGAGSADAVGGAGTGRDIVGSVRGDGGVGMASGDGGLSTGAAGASAEGGLMPGFGGAPWVGGHWGLGGEGHSGAIGGVGEQVAPAVATAPAVSPATTSAVAAESGSTPATKAQAMHATTNPGNAAHQGNPADPGNSARRADGGRDEQLLLLPLTSLRGLRHTLKKLSGLRARNGLLTASGDNASGSGRPWDRDQLLRALGLRPPGHE,not soluble
17,GKKLEPIEELTIDVPEEFMGVVMEKLGPRKAELVNMTSAVNGYTRLEFKIPSRGLIGFRNEFMTDTKGNGIMNSTLIDYEPFRGDIPERSRGSIVVFETGVSVVYGLYSAQERGRLFVGAGVDVYEGMV,not soluble
18,MGLIPPKWLERMVEAYRDPSLERAVYGEVLTRSDIERLLSETPLHPMAAAADYYARVIKKGVGSYIVNIYLAYTNVCVTRCTFCDFYVPPERRSSGYTHPPEHLGRVAGLARKRLGVREVHMVGGNDPELPLEYYEEAIREIKRVAPGVVLKAFTAEEIGFIAKATGNTPKEVLARFREAGLDALPGGGAEVLSEEVRKRIAPLKISSDEYLEIHRLAHSMGIRSNITLLYAHIEEPRHVAEHLYRIRRLQEETGGFISFIPIRFNPGKTPLSRHPEYVKKGDRGGLYDLRIVAASRLALLGAIDNIMAYWVSMGEKLAQAALSHGANDIGGTFYNESVISAASSLRKRKGMSPARLVFNIATAGWTPMERDTFYNYYPPRAEPPRLPWMQG,not soluble
19,MSLLMKGTYCLIINCRGTERRIGSLGTVRFPPGFYVYVGSGFSSLEARIKRHLSSEKRRRWHIDHFLDGAEVECVLYTTDKRRLECAVSEKLHGEKSVRGFGCSDCSCKSHLHHFKNKNDATESVKRAFRELGAEVHEWGIEGHHHHHH,soluble
